# Source: PMC11984393
# Target: CD8 (T-cell surface marker) (Mus musculus) (UniProt P01731)
# Test: flow cytometry
# Conditions: 30 min, live-cell binding, 30 min incubation, buffer, salt, pH and temperature not given in the material
# UniProt P01731, sequence (P01731 whole entry): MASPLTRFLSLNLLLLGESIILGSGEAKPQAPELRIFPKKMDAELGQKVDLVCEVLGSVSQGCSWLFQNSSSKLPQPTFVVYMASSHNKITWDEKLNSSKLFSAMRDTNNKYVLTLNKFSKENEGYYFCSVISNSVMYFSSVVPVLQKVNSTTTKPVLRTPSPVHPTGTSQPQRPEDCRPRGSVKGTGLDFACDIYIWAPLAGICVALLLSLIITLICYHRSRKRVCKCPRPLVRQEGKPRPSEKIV
Sequence,binding signal (% positive cells) (negative control),binding signal (% positive cells)
TTTTTAAGTAATGTATTTAAATTGCGAACTACTACTCTCTCTATATATTGCGAACTACTACTCTCTCTATATTAAAGGAAGGATCTCA [Apt-random-FAM],0.74,
TTTTTTTTTTCCAGAGTGACGCAGCAACAGAGGTGTAGAAGTACACGTGAACAAGCTTGAAATTGTCTCCGACAGAGGTGGACACGGTGGCTTTTAGT [Apt-CD8-FAM],,44.4
